This is an account of results in publication PMC4836274, “Cytokine-Like Factor 1, an Essential Facilitator of Cardiotrophin-Like Cytokine:Ciliary Neurotrophic Factor Receptor α Signaling and sorLA-Mediated Turnover” (Molecular and Cellular Biology, 2016).

T1: sorLA Vps10p-D (human)
T1 chain: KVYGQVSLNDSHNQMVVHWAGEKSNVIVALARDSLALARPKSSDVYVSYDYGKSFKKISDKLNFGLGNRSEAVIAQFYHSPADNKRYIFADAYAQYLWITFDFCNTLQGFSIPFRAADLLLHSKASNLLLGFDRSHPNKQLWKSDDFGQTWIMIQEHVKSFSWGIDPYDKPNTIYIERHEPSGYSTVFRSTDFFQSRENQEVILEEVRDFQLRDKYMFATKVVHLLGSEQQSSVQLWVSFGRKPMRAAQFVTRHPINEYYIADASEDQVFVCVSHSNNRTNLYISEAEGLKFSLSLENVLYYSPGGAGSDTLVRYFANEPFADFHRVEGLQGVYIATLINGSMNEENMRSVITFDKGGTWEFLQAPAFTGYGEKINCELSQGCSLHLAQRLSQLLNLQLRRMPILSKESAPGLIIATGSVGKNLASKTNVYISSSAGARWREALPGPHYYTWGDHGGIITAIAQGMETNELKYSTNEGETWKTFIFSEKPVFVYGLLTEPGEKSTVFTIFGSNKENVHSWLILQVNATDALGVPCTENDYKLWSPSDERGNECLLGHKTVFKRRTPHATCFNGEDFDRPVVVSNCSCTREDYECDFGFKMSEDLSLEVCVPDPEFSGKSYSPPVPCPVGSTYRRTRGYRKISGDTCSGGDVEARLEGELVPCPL

T2: recombinant soluble ciliary neurotrophic factor receptor α (human), P26992
T2 chain: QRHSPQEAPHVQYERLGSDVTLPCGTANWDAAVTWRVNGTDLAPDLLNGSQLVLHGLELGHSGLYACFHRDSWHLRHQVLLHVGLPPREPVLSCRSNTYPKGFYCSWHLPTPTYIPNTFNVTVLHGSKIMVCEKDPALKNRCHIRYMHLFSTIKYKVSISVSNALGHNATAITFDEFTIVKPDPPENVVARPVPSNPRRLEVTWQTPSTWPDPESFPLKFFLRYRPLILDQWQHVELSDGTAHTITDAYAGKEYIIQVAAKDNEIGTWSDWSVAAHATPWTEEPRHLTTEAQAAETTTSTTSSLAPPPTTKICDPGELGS

B1: recombinant soluble ciliary neurotrophic factor receptor α (receptor, human, UniProt P26992 23-342, looked up)
chain: T2 chain
notes: CNTF receptor α, human, soluble recombinant form; also called sCNTFRα; soluble CNTFRα; source: bought: R&D Systems
B2: CLF-1–His (His-tagged cytokine-like factor-1) (natural protein, human, UniProt O75462 38-422, looked up)
chain: AHTAVISPQDPTLLIGSSLLATCSVHGDPPGATAEGLYWTLNGRRLPPELSRVLNASTLALALANLNGSRQRSGDNLVCHARDGSILAGSCLYVGLPPEKPVNISCWSKNMKDLTCRWTPGAHGETFLHTNYSLKYKLRWYGQDNTCEEYHTVGPHSCHIPKDLALFTPYEIWVEATNRLGSARSDVLTLDILDVVTTDPPPDVHVSRVGGLEDQLSVRWVSPPALKDFLFQAKYQIRYRVEDSVDWKVVDDVSNQTSCRLAGLKPGTVYFVQVRCNPFGIYGSKKAGIWSEWSHPTAASTPRSERPGPGGGACEPRGGEPSSGPVRRELKQFLGWLKKHAYCSNLSFRLYDQWRAWMQKSHKTRNQDEGILPSGRRGTARGPAR
notes: signal peptide in the construct; human CLF-1 coding cDNA (ImaGenes) amplified from the start codon to the C terminus, secreted into the medium; The second codon of the forward primer reads GCC (Ala); this lies in the signal peptide; The introduction gives 385 amino acids for human CLF-1; also called His-tagged CLF-1; source: HEK293 cells transfected, purified from serum-free medium (Talon resin) …
B3: cardiotrophin-like cytokine:cytokine-like factor-1 heterodimer (complex, human)
chain 1: LNRTGDPGPGPSIQKTYDLTRYLEHQLRSLAGTYLNYLGPPFNEPDFNPPRLGAETLPRATVDLEVWRSLNDKLRLTQNYEAYSHLLCYLRGLNRQAATAELRRSLAHFCTSLQGLLGSIAGVMAALGYPLPQPLPGTEPTWTPGPAHSDFLQKMDDFWLLKELQTWLWRSAKDFNRLKKKMQPPAAAVTLHLGAHGF
chain 2: B2 chain
notes: cardiotrophin-like cytokine (CLC), human, subunit of the bought recombinant heterodimer; cytokine-like factor-1 (CLF-1; cytokine receptor-like factor 1), human, subunit of the bought recombinant heterodimer; also called CLC:CLF-1; His-tagged CLC:CLF-1; source: bought: R&D Systems (insect cells)
B4: cardiotrophin-like cytokine (ligand, human, UniProt Q9UBD9 28-225, looked up)
chain: B3 chain 1
notes: cardiotrophin-like cytokine (CLC), human recombinant; also called CLC; source: bought: R&D Systems (bacteria)

The target of one assay is T1, sorLA Vps10p-D. Description: SPR. (SPR reads the build-up and loss of mass on a sensor chip optically.)
Assay [1] has as its target T3, soluble sorLA (entire luminal part of sorLA) (human, UniProt Q92673 82-2137).
T3 construct: sorLA, human cDNA, the entire luminal (extracellular) part; also called luminal domain of sorLA; ectodomain of sorLA
The assay can be described thus: SPR; immobilised sorLA preincubated with buffer or with 5 μM inhibitor (sorLA propeptide or RAP) before the ligand was added. As to conditions: both partners purified.

Assay [2] has as its target B3. The assay can be described thus: SPR; Biacore 3000, CM5 chip; sCNTFRα immobilised at 66 to 86 fmol/mm^2; 25°C; 10 mM HEPES, 150 mM NaCl, 1.5 mM CaCl2, 1 mM EGTA, 0.005% Tween 20, pH 7.4; Langmuir 1:1 model, global fitting. As to conditions: both partners purified.
Assay [3] concerns the target T2, recombinant soluble ciliary …. The assay is described as above. The settings on record: remark: other sources report otherwise.
The target in assay [4] is T3, soluble sorLA (entire luminal part of …). Description: SPR; Biacore 3000, CM5 chip; soluble sorLA (entire luminal part) immobilised at 66 to 86 fmol/mm^2; 25°C; 10 mM HEPES, 150 mM NaCl, 1.5 mM CaCl2, 1 mM EGTA, 0.005% Tween 20, pH 7.4; Langmuir 1:1 model, global fitting. As to conditions: both partners purified.
Assay [5] deals with full-length sorLA in transfected HEK293 cells (human, UniProt Q92673 82-2214). Description: cell-based or functional assay.
Assay [6] deals with B1. Description: SPR; Biacore 3000, CM5 chip; sCNTFRα immobilised at 66 to 86 fmol/mm^2; 25°C; 10 mM HEPES, 150 mM NaCl, 1.5 mM CaCl2, 1 mM EGTA, 0.005% Tween 20, pH 7.4; Langmuir 1:1 model, global fitting. As to conditions: both partners purified.

T3 sequence (Q92673 82-2137): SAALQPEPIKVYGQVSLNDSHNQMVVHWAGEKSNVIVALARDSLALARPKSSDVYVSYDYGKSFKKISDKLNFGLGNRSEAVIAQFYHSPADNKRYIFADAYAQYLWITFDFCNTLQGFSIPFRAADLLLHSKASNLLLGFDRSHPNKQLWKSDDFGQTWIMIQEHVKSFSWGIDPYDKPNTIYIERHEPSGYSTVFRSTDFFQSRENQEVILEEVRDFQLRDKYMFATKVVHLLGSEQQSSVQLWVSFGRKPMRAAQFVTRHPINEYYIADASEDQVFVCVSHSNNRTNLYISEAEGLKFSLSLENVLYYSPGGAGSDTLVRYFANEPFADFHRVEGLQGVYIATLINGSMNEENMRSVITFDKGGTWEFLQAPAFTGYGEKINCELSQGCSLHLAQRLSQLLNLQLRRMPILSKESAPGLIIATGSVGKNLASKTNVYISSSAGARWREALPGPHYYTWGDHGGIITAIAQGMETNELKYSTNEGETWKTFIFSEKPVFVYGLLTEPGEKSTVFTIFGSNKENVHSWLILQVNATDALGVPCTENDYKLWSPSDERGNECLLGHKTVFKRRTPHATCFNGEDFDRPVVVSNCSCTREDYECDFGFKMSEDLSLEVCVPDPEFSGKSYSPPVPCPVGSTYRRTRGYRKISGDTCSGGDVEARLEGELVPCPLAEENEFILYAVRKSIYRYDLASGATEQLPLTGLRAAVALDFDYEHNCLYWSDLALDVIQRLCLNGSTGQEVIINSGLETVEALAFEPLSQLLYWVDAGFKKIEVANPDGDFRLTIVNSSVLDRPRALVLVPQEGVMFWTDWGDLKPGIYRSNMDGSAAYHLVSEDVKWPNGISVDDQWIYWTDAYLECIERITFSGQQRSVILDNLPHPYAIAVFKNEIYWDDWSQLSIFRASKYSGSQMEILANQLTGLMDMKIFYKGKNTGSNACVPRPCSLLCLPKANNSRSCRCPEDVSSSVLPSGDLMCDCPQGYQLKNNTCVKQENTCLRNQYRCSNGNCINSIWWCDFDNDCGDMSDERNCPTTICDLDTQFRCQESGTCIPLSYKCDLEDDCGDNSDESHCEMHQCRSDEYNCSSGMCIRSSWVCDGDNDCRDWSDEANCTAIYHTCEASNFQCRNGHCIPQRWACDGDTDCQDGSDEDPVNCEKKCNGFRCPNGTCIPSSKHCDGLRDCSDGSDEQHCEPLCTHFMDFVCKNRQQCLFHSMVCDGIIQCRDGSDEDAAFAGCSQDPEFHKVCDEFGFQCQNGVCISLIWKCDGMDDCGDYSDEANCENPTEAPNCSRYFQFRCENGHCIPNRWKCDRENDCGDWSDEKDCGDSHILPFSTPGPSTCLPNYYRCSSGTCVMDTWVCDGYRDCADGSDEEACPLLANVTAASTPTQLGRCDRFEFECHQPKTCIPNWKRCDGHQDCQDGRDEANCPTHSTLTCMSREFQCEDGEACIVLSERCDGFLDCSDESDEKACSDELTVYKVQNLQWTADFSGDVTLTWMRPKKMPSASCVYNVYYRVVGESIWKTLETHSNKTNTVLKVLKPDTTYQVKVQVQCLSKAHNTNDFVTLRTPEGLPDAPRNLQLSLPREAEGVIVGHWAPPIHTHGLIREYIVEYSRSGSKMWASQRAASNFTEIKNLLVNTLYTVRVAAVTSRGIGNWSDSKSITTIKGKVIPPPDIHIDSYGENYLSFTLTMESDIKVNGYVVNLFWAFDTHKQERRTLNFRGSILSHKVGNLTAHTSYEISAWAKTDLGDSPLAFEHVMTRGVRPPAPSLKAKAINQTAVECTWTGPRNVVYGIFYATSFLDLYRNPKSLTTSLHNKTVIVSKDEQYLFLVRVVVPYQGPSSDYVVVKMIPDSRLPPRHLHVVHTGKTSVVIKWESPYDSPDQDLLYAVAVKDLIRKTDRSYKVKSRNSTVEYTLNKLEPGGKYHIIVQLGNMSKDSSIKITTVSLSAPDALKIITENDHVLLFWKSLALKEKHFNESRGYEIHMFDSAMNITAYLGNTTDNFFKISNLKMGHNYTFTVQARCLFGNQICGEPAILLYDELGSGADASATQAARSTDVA
full-length sorLA in transfected HEK293 cells, sequence (Q92673 82-2214): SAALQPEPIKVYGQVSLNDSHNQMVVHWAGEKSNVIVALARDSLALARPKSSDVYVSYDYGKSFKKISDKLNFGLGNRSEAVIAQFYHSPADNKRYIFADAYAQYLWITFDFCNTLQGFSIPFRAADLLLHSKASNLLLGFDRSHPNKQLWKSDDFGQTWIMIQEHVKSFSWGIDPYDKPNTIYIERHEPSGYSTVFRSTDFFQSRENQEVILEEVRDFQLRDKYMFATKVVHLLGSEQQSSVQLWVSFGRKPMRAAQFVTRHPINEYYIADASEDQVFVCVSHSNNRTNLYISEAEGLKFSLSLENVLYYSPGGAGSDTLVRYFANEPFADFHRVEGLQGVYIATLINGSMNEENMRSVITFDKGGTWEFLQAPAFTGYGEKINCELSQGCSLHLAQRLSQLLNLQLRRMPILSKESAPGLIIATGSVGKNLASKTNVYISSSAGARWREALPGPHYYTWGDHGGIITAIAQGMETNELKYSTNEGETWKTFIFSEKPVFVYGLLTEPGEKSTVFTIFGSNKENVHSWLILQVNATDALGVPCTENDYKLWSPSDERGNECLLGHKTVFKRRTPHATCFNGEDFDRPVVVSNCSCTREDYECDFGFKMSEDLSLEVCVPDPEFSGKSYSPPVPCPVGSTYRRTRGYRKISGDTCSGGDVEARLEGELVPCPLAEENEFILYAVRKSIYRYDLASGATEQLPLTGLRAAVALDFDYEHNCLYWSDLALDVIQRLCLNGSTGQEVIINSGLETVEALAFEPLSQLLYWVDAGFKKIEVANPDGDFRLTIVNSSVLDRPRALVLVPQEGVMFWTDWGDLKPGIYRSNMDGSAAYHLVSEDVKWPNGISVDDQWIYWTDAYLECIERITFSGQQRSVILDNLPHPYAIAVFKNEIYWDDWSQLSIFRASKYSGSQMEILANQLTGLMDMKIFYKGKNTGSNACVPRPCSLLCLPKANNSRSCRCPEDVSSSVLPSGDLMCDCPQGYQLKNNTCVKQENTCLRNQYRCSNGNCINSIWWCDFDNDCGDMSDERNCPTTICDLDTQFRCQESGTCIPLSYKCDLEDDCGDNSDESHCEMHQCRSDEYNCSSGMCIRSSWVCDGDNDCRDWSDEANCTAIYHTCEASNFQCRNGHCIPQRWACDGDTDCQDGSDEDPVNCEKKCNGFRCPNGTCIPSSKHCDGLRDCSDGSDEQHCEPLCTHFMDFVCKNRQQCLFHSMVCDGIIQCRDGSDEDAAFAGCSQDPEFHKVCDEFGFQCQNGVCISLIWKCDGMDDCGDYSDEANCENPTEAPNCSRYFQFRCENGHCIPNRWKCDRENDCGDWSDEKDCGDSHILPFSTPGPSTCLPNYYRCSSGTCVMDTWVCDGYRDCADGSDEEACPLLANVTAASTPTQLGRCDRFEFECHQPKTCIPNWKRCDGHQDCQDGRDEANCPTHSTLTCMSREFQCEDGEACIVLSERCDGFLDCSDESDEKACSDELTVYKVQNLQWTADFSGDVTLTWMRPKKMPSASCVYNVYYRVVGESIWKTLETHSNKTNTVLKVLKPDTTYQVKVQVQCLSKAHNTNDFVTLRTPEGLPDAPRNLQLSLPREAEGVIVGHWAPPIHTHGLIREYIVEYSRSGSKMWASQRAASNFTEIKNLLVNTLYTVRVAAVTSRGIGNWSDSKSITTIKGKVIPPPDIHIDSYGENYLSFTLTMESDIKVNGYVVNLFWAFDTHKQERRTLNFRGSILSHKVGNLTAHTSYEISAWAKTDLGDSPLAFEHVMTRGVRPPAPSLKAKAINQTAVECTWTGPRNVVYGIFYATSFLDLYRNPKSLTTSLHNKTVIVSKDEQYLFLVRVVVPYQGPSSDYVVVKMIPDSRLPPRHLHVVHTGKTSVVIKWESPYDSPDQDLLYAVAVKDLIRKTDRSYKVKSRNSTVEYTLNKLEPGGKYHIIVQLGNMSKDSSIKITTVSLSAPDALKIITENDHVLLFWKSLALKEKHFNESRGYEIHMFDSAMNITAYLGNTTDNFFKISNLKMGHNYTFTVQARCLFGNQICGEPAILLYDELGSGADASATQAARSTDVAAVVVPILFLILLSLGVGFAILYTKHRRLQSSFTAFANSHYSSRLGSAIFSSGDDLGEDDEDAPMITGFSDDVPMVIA

For the molecule B1, the figures for the Kd (with sorLA Vps10p-D; in assay [2]) were around 14 nM and 0.3 nM, respectively. Further, in assay [1], the binding result is recorded as “binds”.

With B2, the Kd in assay [3] and in assay [4] was 4 nM in each case.

B3: in assay [5], the “pSTAT3 in CNTFRα-deficient Ba/F3 cells (gp130/LIFRβ) stimulated with CLC:CLF-1 and sCNTFRα, sorLA transfectants against untransfected cells” value is around 4 fold. Also, binding in assay [4] was characterised by a dissociation constant (Kd) of 5 nM.

As to B4, in assay [6], the dissociation constant (Kd) came to 66 nM.

A word on the Kd: it is the concentration at which binding is half-saturated.
